Reference: US20240392004A1 (IMMUNOWAKE, published 2024)
Where a chain is given by its changes, count along the chain named. In names and notes the source's numbering stands.

T1: IFN-γ receptor (IFNGR1 and IFNGR2) (UniProt P15260 18-489; P38484 22-337, limits assumed)
T1 sequence (looked up) 1: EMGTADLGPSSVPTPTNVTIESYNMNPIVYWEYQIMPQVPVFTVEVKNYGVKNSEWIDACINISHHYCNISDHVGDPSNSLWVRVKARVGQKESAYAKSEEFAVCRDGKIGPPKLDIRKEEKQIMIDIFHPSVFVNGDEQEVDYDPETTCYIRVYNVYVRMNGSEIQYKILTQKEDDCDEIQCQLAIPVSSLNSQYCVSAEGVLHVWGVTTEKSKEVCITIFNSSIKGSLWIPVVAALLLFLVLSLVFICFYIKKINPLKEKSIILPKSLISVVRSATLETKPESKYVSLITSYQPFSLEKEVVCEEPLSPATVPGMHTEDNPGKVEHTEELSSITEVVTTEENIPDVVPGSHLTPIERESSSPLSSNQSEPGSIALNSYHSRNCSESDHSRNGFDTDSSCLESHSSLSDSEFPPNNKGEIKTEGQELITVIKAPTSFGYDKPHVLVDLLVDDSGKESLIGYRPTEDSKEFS
T1 sequence (looked up) 2: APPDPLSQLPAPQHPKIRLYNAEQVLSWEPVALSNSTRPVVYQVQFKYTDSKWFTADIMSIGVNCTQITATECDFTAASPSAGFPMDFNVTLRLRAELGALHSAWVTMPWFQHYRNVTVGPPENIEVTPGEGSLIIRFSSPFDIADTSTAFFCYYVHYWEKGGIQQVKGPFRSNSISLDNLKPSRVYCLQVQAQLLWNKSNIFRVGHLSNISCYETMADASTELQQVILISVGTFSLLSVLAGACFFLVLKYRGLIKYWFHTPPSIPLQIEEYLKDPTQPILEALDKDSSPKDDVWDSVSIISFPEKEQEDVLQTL

B1: IL-12(E59A/F60A)/IFN-γ(A23V/A23V)/PD-L2(mut2)-Fc (Fc fusion)
chain 1: LFTVTVPKELYIIEHGSNVTLECNFDTGSHVNLGAITAVLQKVENDTSPHRERATLLEEQLPLGKASFHIPQVQVRDEGQYQCIIIYGVAWDYKYLTLKVKASYRKINTHILKVPETDEVELTCQATGYPLAEVSWPNVSVPANTSHSRTPEGLYQVTSVLRLKPPPGRNFSCVFWNTHVRELTLASIDLQSQMEPRTHPTGGGGSGGGIWELKKDVYVVELDWYPDAPGEMVVLTCDTPEEDGITWTLDQSSEVLGSGKTLTIQVKAAGDAGQYTCHKGGEVLSHSLLLLHKKEDGIWSTDILKDQKEPKNKTFLRCEAKNYSGRFTCWWLTTISTDLTFSVKSSRGSSDPQGVTCGAATLSAERVRGDNKEYEYSVECQEDSACPAAEESLPIEVMVDAVHKLKYENYTSSFFIRDIIKPDPPKNLQLKPLKNSRQVEVSWEYPDTWSTPHSYFSLTFCVQVQGKSKREKKDRVFTDKTSATVICRKNASISVRAQDRYYSSSWSEWASVPCSGGGGSGGGSGGGGSRNLPVATPDPGMFPCLHHSQNLLRAVSNMLQKARQTLEFYPCTSEEIDHEDITKDKTSTVEACLPLELTKNESCLNSRETSFITNGSCLASRKTSFMMALCLSSIYEDLKMYQVEFKTMNAKLLMDPKRQIFLDQNMLAVIDELMQALNFNSETVPQKSSLEEPDFYKTKIKLCILLHAFRIRAVTIDRVMSYLNASGGGGSGGGDKTHTCPPCPAPEDEGGPSVFLFPPKPKDTLMISRTPEVTCVVVDVSHEDPEVKFNWYVDGVEVHNAKTKPREEQYNSTYRVVSVLTVLHQDWLNGKEYKCKVSNKALPAPIEKTISKAKGQPREPQVYVYPPSREEMTKNQVSLTCLVKGFYPSDIAVEWESNGQPENNYKTTPPVLDEDGSFALVSKLTVDKSRWQQGNVFSCSVMHEALHNHYTQKSLSLSPGK
chain 2: LFTVTVPKELYIIEHGSNVTLECNFDTGSHVNLGAITAVLQKVENDTSPHRERATLLEEQLPLGKASFHIPQVQVRDEGQYQCIIIYGVAWDYKYLTLKVKASYRKINTHILKVPETDEVELTCQATGYPLAEVSWPNVSVPANTSHSRTPEGLYQVTSVLRLKPPPGRNFSCVFWNTHVRELTLASIDLQSQMEPRTHPTGGGSGQDPYVKEAENLKKYFNAGHSDVVDNGTLFLGILKNWKEESDRKIMQSQIVSFYFKLFKNFKDDQSIQKSVETIKEDMNVKFFNSNKKKRDDFEKLTNYSVTDLNVQRKAIHELIQVMAELSPAAKTGKRKRSQMLFRGGGGSGGGGSGGGGSGGGGSQDPYVKEAENLKKYFNAGHSDVVDNGTLFLGILKNWKEESDRKIMQSQIVSFYFKLFKNFKDDQSIQKSVETIKEDMNVKFFNSNKKKRDDFEKLTNYSVTDLNVQRKAIHELIQVMAELSPAAKTGKRKRSQMLFRGGGGGSGGGDKTHTCPPCPAPEKKGGPSVFLFPPKPKDTLMISRTPEVTCVVVDVSHEDPEVKFNWYVDGVEVHNAKTKPREEQYNSTYRVVSVLTVLHQDWLNGKEYKCKVSNKALPAPIEKTISKAKGQPREPQVYVLPPSREEMTKNQVSLLCLVKGFYPSDIAVEWESNGQPENRYMTWPPVLDSDGSFFLYSKLTVDKSRWQQGNVFSCSVMHEALHNHYTQKSLSLSPGK
B2: IL-12(E59A/F60A)/IFN-γ(A23V/A23V)/PD-L2(mut4)-Fc (Fc fusion)
chain 1: B1 chain 1 with T37V, Q41L
chain 2: B1 chain 2 with T37V, Q41L
B3: PD-L1(I54Q/Y56F/E58M/R113T/M115L/S117A/G119K)-Fc/IL-12(E59A/F60A) (IL-12 at C-terminus of Fc) (Fc fusion)
chain 1: FTVTVPKDLYVVEYGSNMTIECKFPVEKQLDLAALQVFWMMEDKNIIQFVHGEEDLKVQHSSYRQRARLLKDQLSLGNAALQITDVKLQDAGVYTCLIAYKGADYKRITVKVNAPYNKINQRILVVDPVTSEHELTCQAEGYPKAEVIWTSSDHQVLSGKTTTTNSKREEKLFNVTSTLRINTTTNEIFYCTFRRLDPEENHTAELVIPELPLAHPPNERGSGDKTHTCPPCPAPEKKGGPSVFLFPPKPKDTLMISRTPEVTCVVVDVSHEDPEVKFNWYVDGVEVHNAKTKPREEQYNSTYRVVSVLTVLHQDWLNGKEYKCKVSNKALPAPIEKTISKAKGQPREPQVYVLPPSREEMTKNQVSLLCLVKGFYPSDIAVEWESNGQPENRYMTWPPVLDSDGSFFLYSKLTVDKSRWQQGNVFSCSVMHEALHNHYTQKSLSLSPGK
chain 2: FTVTVPKDLYVVEYGSNMTIECKFPVEKQLDLAALQVFWMMEDKNIIQFVHGEEDLKVQHSSYRQRARLLKDQLSLGNAALQITDVKLQDAGVYTCLIAYKGADYKRITVKVNAPYNKINQRILVVDPVTSEHELTCQAEGYPKAEVIWTSSDHQVLSGKTTTTNSKREEKLFNVTSTLRINTTTNEIFYCTFRRLDPEENHTAELVIPELPLAHPPNERGSGDKTHTCPPCPAPEDEGGPSVFLFPPKPKDTLMISRTPEVTCVVVDVSHEDPEVKFNWYVDGVEVHNAKTKPREEQYNSTYRVVSVLTVLHQDWLNGKEYKCKVSNKALPAPIEKTISKAKGQPREPQVYVYPPSREEMTKNQVSLTCLVKGFYPSDIAVEWESNGQPENNYKTTPPVLDEDGSFALVSKLTVDKSRWQQGNVFSCSVMHEALHNHYTQKSLSLSPGKGGGGSGGGGSGGGGSIWELKKDVYVVELDWYPDAPGEMVVLTCDTPEEDGITWTLDQSSEVLGSGKTLTIQVKAAGDAGQYTCHKGGEVLSHSLLLLHKKEDGIWSTDILKDQKEPKNKTFLRCEAKNYSGRFTCWWLTTISTDLTFSVKSSRGSSDPQGVTCGAATLSAERVRGDNKEYEYSVECQEDSACPAAEESLPIEVMVDAVHKLKYENYTSSFFIRDIIKPDPPKNLQLKPLKNSRQVEVSWEYPDTWSTPHSYFSLTFCVQVQGKSKREKKDRVFTDKTSATVICRKNASISVRAQDRYYSSSWSEWASVPCSGGGGSGGGGSGGGGSGGGGSGRNLPVATPDPGMFPCLHHSQNLLRAVSNMLQKARQTLEFYPCTSEEIDHEDITKDKTSTVEACLPLELTKNESCLNSRETSFITNGSCLASRKTSFMMALCLSSIYEDLKMYQVEFKTMNAKLLMDPKRQIFLDQNMLAVIDELMQALNFNSETVPQKSSLEEPDFYKTKIKLCILLHAFRIRAVTIDRVMSYLNAS
B4: PD-L1(I54Q/Y56F/E58M/R113T/M115L/S117A/G119K)-Fc/IL-12(F60A) (IL-12 at C-terminus of Fc) (Fc fusion)
chain 1: B3 chain 1
chain 2: B3 chain 2 with A524E

Columns and labels:
Test in all cases: cell-based or functional assay
[1] = biological target: T2, human PD-1 on cells (HEK-PD-1 reporter cells; activated PBMC) (human, UniProt Q15116 25-288)
T2 sequence (Q15116 25-288): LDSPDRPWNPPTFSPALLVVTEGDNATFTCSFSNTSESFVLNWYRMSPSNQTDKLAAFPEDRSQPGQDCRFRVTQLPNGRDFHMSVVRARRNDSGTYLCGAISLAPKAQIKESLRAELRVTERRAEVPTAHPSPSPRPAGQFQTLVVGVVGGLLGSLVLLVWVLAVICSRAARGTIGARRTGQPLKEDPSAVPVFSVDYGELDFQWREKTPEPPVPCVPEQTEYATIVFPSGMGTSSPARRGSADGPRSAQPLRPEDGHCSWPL

[2] = biological target: human IL-12 receptor complex (IL-12Rβ1 and IL-12Rβ2) (human, UniProt P42701 24-662; Q99665 24-862)
human IL-12 receptor complex (IL-12Rβ1 and IL-12Rβ2), sequence (Q99665 24-862, chain 2 of 2, other chains not shown): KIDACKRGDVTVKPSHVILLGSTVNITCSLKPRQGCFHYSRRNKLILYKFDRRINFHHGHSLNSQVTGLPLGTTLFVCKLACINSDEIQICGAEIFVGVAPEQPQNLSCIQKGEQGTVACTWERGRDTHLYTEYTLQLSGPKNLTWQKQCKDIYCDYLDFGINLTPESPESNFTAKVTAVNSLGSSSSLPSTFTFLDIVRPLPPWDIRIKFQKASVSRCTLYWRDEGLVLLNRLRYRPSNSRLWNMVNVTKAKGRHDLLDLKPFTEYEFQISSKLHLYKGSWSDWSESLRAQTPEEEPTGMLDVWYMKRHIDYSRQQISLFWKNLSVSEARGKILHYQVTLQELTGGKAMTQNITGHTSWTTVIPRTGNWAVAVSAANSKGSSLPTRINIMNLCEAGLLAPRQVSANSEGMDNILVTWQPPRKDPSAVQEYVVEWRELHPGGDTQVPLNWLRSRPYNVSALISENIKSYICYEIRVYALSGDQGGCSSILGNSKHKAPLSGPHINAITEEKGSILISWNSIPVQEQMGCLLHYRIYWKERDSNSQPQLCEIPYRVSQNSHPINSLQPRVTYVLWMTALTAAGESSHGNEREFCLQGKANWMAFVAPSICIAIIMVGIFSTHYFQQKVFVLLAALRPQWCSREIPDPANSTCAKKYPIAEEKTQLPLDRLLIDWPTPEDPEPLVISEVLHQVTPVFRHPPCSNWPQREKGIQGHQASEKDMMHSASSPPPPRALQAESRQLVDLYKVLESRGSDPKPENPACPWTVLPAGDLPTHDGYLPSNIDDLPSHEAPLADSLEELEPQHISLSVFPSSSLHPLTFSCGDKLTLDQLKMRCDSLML

[3] = biological target: T1, IFN-γ receptor (IFNGR1 and IFNGR2)
[4] = biological target: T2, human PD-1 on cells (HEK-PD-1 reporter …); remark: listed apart in the source

Binder | IFN-γ signal transduction, HEK-IFN-γ-PD-1 [1] [%] | IL-12 signal transduction, HEK-IL-12-PD-1 [1] [%] | IL-12 signal transduction, HEK-IL-12 [2] [%] | IFN-γ signal transduction, HEK-IFN-γ [3] [%] | Biological activity of IL-12, HEK-PD-1-IL-12 reporter assay, % of rIL-12 [4] [%]
B1 | 35 | 45 | < 0.2 | < 0.1 | 
B2 | 40 | 49 | < 0.2 | < 0.1 | 
B3 |  |  |  |  | 189
B4 |  |  |  |  | 234
